Data as given in PMC10881741, “Structural modifications toward improved lead-203/lead-212 peptide-based image-guided alpha-particle radiopharmaceutical therapies for neuroendocrine tumors” (European Journal of Nuclear Medicine and Molecular Imaging, 2023).
Where two headings read alike, the source gives them in different places.

Experiments:
AR42J cells = experiment: Cellular uptake of ^203Pb-labeled peptides; type: cell-based, rat; conditions: 2 h post-incubation
Protocol: PSCTOC and PSC-PEG2-TOC were labeled with ^203Pb and purified via HPLC for high molar activities as descibed in the Supplementary Material and in Li and collaborators. The HPLC-purified ^203Pb-labeled peptides (3.4 kBq) were incubated with AR42J cells in 24-well plates (pre-coated with poly-D-lysine), which were plated at a density of 2.0 × 10^5 cells 2 days prior, in the binding medium at 37 °C for up to 120 min. The cells were then washed twice and lysed, and the radioactivities of the samples were determined (n=3).

[1] = In vivo biodistribution of ^203Pb-labeled peptides; design: species or system mice; conditions: female, athymic nu/nu, mouse, 37 kBq, total radioactivity; for tissue uptake at 1 h / tissue uptake at 3 h / tissue uptake at 24 h: intravenous; for tissue uptake at 1 h / tissue to tissue ratio at 1 h: 1 h post-administration; for tissue uptake at 3 h / tissue to tissue ratio at 3 h: 3 h post-administration; for tissue uptake at 24 h / tissue to tissue ratio at 24 h: 24 h post-administration; for tissue to tissue ratio at 1 h / tissue to tissue ratio at 3 h / tissue to tissue ratio at 24 h: iv
Protocol: AR42J cells (5.0 × 10^6 cells/animal) were implanted subcutaneously on the left shoulder of female athymic nu/nu mice. […] Extra groups of mice were co-administered 37 kBq of ^203Pb-PSC-PEG2-TOC with DL-lysine (400 mg/kg) to determine the effect of amino acid on renal uptake of the radiopharmaceutical. Mice (n=3 per time point) were euthanized at 1, 3, and 24 h post-administration, and tumors and organs/tissues of interest were excised and weighed. The radioactivities of the samples were measured using the gamma counter.

[2] = large intestine, read-out: Large intestine
[3] = small intestine, read-out: Small intestine
[4] = tumor/blood, read-out: Tumor/blood ratio
[5] = tumor/kidneys, read-out: Tumor/kidneys ratio
[6] = tumor/liver, read-out: Tumor/liver ratio
[7] = tumor/lung, read-out: Tumor/lung ratio
[8] = tumor/muscle, read-out: Tumor/muscle ratio

In the case of `C[C@@H](O)[C@@H]1NC(=O)[C@H](CCCCN)NC(=O)[C@@H](Cc2c[nH]c3ccccc23)NC(=O)[C@H](Cc2ccc(O)cc2)NC(=O)[C@@H](NC(=O)[C@@H](Cc2ccccc2)NC(=O)CN2CCN(CC(=O)O)CCN(CC(N)=O)CCN(CC(=O)O)CC2)CSSC[C@@H](C(=O)N[C@H](CO)[C@@H](C)O)NC1=O` [[^203Pb]Pb-PSCTOC, metal not drawn], the “Cellular uptake, fold vs. [^203Pb]Pb-DOTATOC” value (AR42J cells) is reported as 6 fold, the Cellular uptake (AR42J cells; 37 °C) is reported as 5% and the tissue uptake at 1 h ([1]; blood, read-out: Blood) is reported as 0.53 ± 0.06 %ID/g. The tissue uptake at 3 h ([1]; blood, read-out: Blood) was 0.03 ± 0.01 %ID/g, the tissue uptake at 24 h ([1]; blood, read-out: Blood) was 0.01 %ID/g and the tissue uptake at 1 h ([1]; brain, read-out: Brain) was 0.16 ± 0.16 %ID/g. The tissue uptake at 3 h ([1]; brain, read-out: Brain) was 0.01 %ID/g, the tissue uptake at 24 h ([1]; brain, read-out: Brain) was 0.02 %ID/g and the tissue uptake at 1 h ([1]; heart, read-out: Heart) was 0.32 ± 0.02 %ID/g. The tissue uptake at 3 h ([1]; heart, read-out: Heart) was 0.07 %ID/g, the tissue uptake at 24 h ([1]; heart, read-out: Heart) was 0.05 ± 0.01 %ID/g and the tissue uptake at 1 h ([1]; kidneys, read-out: Kidneys) was 13.6 ± 0.75 %ID/g. It also gave a tissue uptake at 3 h ([1]; kidneys, read-out: Kidneys) of 8.35 ± 1.33 %ID/g, a tissue uptake at 24 h ([1]; kidneys, read-out: Kidneys) of 5.59 ± 1.3 %ID/g and a tissue uptake at 1 h [1, 2] of 0.77 ± 0.04 %ID/g. It also gave a tissue uptake at 3 h [1, 2] of 3.1 ± 0.12 %ID/g, a tissue uptake at 24 h [1, 2] of 0.45 ± 0.03 %ID/g and a tissue uptake at 1 h ([1]; liver, read-out: Liver) of 0.44 ± 0.02 %ID/g. It also gave a tissue uptake at 3 h ([1]; liver, read-out: Liver) of 0.19 ± 0.03 %ID/g, a tissue uptake at 24 h ([1]; liver, read-out: Liver) of 0.14 %ID/g and a tissue uptake at 1 h ([1]; lung, read-out: Lung) of 5.06 ± 0.74 %ID/g. It also gave a tissue uptake at 3 h ([1]; lung, read-out: Lung) of 1.09 ± 0.36 %ID/g, a tissue uptake at 24 h ([1]; lung, read-out: Lung) of 1.39 ± 0.27 %ID/g and a tissue uptake at 1 h ([1]; muscle, read-out: Muscle) of 0.25 ± 0.06 %ID/g. For the same molecule, the tissue uptake at 3 h ([1]; muscle, read-out: Muscle) was 0.05 ± 0.03 %ID/g, the tissue uptake at 24 h ([1]; muscle, read-out: Muscle) was 0.03 ± 0.01 %ID/g and the tissue uptake at 1 h [1, 3] was 1.38 ± 0.07 %ID/g. The tissue uptake at 3 h [1, 3] was 2.85 ± 2.25 %ID/g, the tissue uptake at 24 h [1, 3] was 0.12 ± 0.01 %ID/g and the tissue uptake at 1 h ([1]; spleen, read-out: Spleen) was 0.7 ± 0.13 %ID/g. The tissue uptake at 3 h ([1]; spleen, read-out: Spleen) was 0.35 ± 0.12 %ID/g, the tissue uptake at 24 h ([1]; spleen, read-out: Spleen) was 0.24 ± 0.03 %ID/g and the tissue uptake at 1 h ([1]; tumor, read-out: Tumor) was 19.1 ± 3.31 %ID/g. The tissue uptake at 3 h ([1]; tumor, read-out: Tumor) was 16.2 ± 1.76 %ID/g, the tissue uptake at 24 h ([1]; tumor, read-out: Tumor) was 8.65 ± 0.7 %ID/g and the tissue to tissue ratio at 1 h [1, 4] was 36.1. The tissue to tissue ratio at 3 h [1, 4] was 540, the tissue to tissue ratio at 24 h [1, 4] was 865 and the tissue to tissue ratio at 1 h [1, 5] was 1.41. The tissue to tissue ratio at 3 h [1, 5] was 1.94, the tissue to tissue ratio at 24 h [1, 5] was 1.55 and the tissue to tissue ratio at 1 h [1, 6] was 43.5. It also gave a tissue to tissue ratio at 3 h [1, 6] of 85.3, a tissue to tissue ratio at 24 h [1, 6] of 61.8 and a tissue to tissue ratio at 1 h [1, 7] of 3.78. For the same molecule, the tissue to tissue ratio at 3 h [1, 7] was 14.9, the tissue to tissue ratio at 24 h [1, 7] was 6.22 and the tissue to tissue ratio at 1 h [1, 8] was 76.6. The tissue to tissue ratio at 3 h [1, 8] was 324 and the tissue to tissue ratio at 24 h [1, 8] was 288.
